Source: article PMC4239610, “A Peptide Derived from G0/G1 Switch Gene 2 Acts as Noncompetitive Inhibitor of Adipose Triglyceride Lipase” (The Journal of Biological Chemistry, 2014)

Molecular target: T1, murine adipose triglyceride lipase, Strep fusion (Strep-mATGL) (mouse) (UniProt Q8BJ56)
T1 sequence: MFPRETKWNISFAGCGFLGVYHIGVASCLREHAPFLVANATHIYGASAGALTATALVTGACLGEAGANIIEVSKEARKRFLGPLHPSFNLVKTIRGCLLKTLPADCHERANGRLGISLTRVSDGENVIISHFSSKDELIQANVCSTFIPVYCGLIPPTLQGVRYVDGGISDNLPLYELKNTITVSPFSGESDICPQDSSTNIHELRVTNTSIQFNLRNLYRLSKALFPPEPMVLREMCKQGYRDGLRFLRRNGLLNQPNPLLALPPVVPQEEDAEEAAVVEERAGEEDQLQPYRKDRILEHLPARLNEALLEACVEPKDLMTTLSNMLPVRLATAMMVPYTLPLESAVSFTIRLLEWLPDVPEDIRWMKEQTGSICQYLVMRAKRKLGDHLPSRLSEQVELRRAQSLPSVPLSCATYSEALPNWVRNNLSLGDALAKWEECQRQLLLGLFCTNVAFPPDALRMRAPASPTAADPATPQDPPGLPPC

B1: human G0/G1 switch gene 2 protein, full length (hG0S2) (natural protein)
chain: METVQELIPLAKEMMAQKRKGKMVKLYVLGSVLALFGVVLGLMETVCSPFTAARRLRDQEAAVAELQAALERQALQKQALQEKGKQQDTVLGGRALSNRQHAS
**Q.** How did the IC50 of inhibition of CGI-58-stimulated mATGL TG hydrolase activity, dose-response with full-length hG0S2 turn out when B1 was run?
**A.** The IC50 of inhibition of CGI-58-stimulated mATGL TG hydrolase activity, dose-response with full-length hG0S2 was 19 nM.
